Values belong to the molecule of their own block, whether it stands above or below them.
Legend:
Myo1E (myosin 1E) = Myo1E (myosin 1E) (UniProt Q12965); assay: reciprocal co-IP of endogenous proteins, immunoblot; settings: sites S202
recombinant SH3P2 = target: T1, recombinant SH3P2 (human, UniProt Q92882 1-214); assay: pull-down
T1 sequence (looked up): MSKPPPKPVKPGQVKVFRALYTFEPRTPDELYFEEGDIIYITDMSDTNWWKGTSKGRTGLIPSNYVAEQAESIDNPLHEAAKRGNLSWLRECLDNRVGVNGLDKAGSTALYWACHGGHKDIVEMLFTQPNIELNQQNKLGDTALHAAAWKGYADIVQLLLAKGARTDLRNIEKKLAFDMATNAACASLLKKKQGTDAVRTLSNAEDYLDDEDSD

other: % of lysate Myo1E associated with SH3P2 (Myo1E (myosin 1E); reference: untreated cells): stronger; reference 6.1 ± 2.1
Molecule: SH3P2 (from UniProt Q92882) 10 µM PD184352, 4 h

other: % of lysate Myo1E associated with SH3P2 (Myo1E (myosin 1E); reference: serum-deprived cells): weaker; reference 78.4 ± 6.8
Molecule: SH3P2 (from UniProt Q92882) 10% FBS, 10 min

binding result (recombinant SH3P2): binds
B1: GST-Myo1E(SH3) (domain or fragment, human, UniProt Q12965 1039-1108, looked up)
chain: AGGRPKPQPKPKPQVPQCKALYAYDAQDTDELSFNANDIIDIIKEDPSGWWTGRLRGKQGLFPNNYVTKI

Source: PMC4987290 (The Journal of Cell Biology, 2016)
